From US20220112288A1 (published 2022)

B1: 75110_01L08A (antibody, V domains shown)
VH: QVQLQESGPGLVKPSETLSLTCTVSGGSISHYYWSWIRQPPGKGLEWIGYIHYSGTTNYNPSLKSRVTISVDTSKNQLSLKLRSVTAADTAVYYCARDQGFSSGGMDVWGQGTTVTVSS
VL: not shown
notes: Tested as antibody purified from AlivaMab Mouse hybridoma supernatant (captured by anti-mouse IgG Fc)
B2: 75110_02E08A (antibody, V domains shown)
VH: QVQLQESGPGLVKPSETLSLTCTVSGGSISTYYWTWIRQPAGKGLEWIGRVYTSGDTNYNPSLKSRVAMSLDTSKNQFSLKLSSVTAADTAVYYCARDSGALYSWNYGDAFDIWGQGTMVTVSS
VL: DIQMTQSPSAMSASVGDRVTITCRASQDISNYLAWFQQKPGKVPKRLIYAASSLQSGVPSRFSGSGSGTEFTLTISSLQPEDFATYYCLQHNSYPRTFGQGTKVEIK
notes: as for B1
B3: 75110_02E22A (antibody, V domains shown)
VH: QVQLQESGPGLVKPSETLSLTCTVSGGSISSFYWSWIRQPAGKGLEWIGRIYTSGSTNYNPSLKSRVTMSVDTSKNQFSLKLSSVTAADTAVYYCARELEKRNYYGMDVWGQGTTVTVSS
VL: DIQMTQSPSSLSASVGDRVTITCQASHDISNYLNWYQQKPGKAPKLLIFDASTLETGVPSRFSGSGSGTYFTFTIRSLQPEDIATYYCQQYDSLPLTFGGGTKVEIK
notes: as for B1
B4: 75110_02I16A (antibody, V domains shown)
VH: QVQLQQWGAGLLKPSETLSLTCDVYGGSFSGYYWTWIRQPPGKGLEWIGEINHSGTTNSNPSLKSRVTISVDTSKSQFSLRLSSVTAADTAVYFCTRELNWFDPWGQGTLVTVSS
VL: DIQMTQSPSSVSASVGDRVTITCRASQDIANWLAWYQQKPGKAPQLLIYAASSLLGGVPSRFSGSGSGADFTLTISSLHPEDFATYYCQQANSFPYTFGQGTKLEIK
notes: as for B1
B5: 75110_02K11A (antibody, V domains shown)
VH: QVQLQESGPGLVKPSQTLSLTCTVSGGSISSGFYYWTWIRQHPGKGLEWIGYISYSGNTYYNPSFKSRLTISVDTSKSQFSLKLSSVTAADTAVYYCARDRPSNFDAFDIWGQGTMVTVSS
VL: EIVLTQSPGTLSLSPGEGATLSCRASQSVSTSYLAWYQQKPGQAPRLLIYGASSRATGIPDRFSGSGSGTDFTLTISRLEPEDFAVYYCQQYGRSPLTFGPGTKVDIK
notes: as for B1
B6: 75110_03I08A (antibody, V domains shown)
VH: QVQLQESGPGLVKPSETLSLTCTVSGGSISSYYWSWIRQPPGKGLEWIGYIYYSGSTNYNPSLKSRVTISVDTSKNQFSLKLSSVTAADTAVYYCAREGEQWFYGLDVWGQGTTVTVSS
VL: EIVLTQSPGTLSLSPGERATLSCRASQSVSSTYLAWYQQKPGQAPRLLIYGSSSRATGIPDRFSGSGSGTDFTLTISRLEPEDFAVYYCQQYGNSFPITFGQGTRLEIK
notes: as for B1
B7: 75110_03I23A (antibody, V domains shown)
VH: QVQLQESGPGLVKPSETLSLTCTASGGSITSYYWNWIRQPAGKGLEWIGRIYTSGSTNYNPSLKSRVTMSVDTSKNQFSLKLSSVTAADTAVYYCARDPGYSDAFNIWGQGTMVTVSS
VL: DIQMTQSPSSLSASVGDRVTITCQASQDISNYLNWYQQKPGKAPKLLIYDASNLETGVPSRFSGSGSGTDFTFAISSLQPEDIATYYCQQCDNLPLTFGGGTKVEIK
notes: as for B1
B8: 75110_04B08A (antibody, V domains shown)
VH: QVQLVESGGGVVQPGRSLRLSCTASGFNFINYGIHWVRQAPGKGLEWVTIIWYDGSKKYYADSVKGRFAISRDNSKNTLYLQMNSLRAEDTAVYYCAREDDWNDGLAYWGQGTLVTVSS
VL: AIQMTQSPSSLSASVGDRVTITCRASQDIRNDLGWYQQKPGKAPNLLIYAASNLQSGVPSRFSGSGSGTDFTLTISSLQPEDFATYYCLQDSNYPRTFGQGTKVEIK
notes: as for B1
B9: 75110_04D20A (antibody, V domains shown)
VH: QVQLQESGPGLVKPSETLSLTCTVSNGSISDYYWSWIRQPAGKGLEWIGRIYTSGSTNYNPSLKSRITMSVDTSKNQFSLELSSVTAADTAVYYCARELERYYFYGVDVWGQGTTVTVSS
VL: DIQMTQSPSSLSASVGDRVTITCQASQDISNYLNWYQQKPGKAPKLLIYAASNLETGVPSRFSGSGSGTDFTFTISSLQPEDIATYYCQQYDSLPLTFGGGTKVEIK
notes: as for B1
B10: 75110_04G02A (antibody, V domains shown)
VH: not shown
VL: DIVMTQSPDSLAVSLGERATINCKSSQSVLYSSNNKNYLAWYQQKPGQPPKLLFYWASARESGVPDRFSGSGSGTDFTLTISSLQAEDVALYYCQQYFGSFPTFGQGTKLEIK
notes: as for B1
B11: 75110_04G16A (antibody, V domains shown)
VH: QVQLQESGPGLVKPSQTLSLTCTVSGDSISSGYYYWSWIRQHPGKGLEWIGYISYSGSTYYNPSLKSRLTISVNTSKNQFSLKLSSLTAADTAVYYCARDRPSNFDAFDIWGQGTMVTVSS
VL: EIVLTQSPGTLSLSPGERATLSCRASQSVGSTYLAWYQQKPGQAPRLLIYGAFSRATGIPDRFSGSGSGTDFTLTISRLEPEDFAVYYCQQYGSSPLTFGPGTKVDIK
notes: as for B1
B12: 75110_04H17A (antibody, V domains shown)
VH: QVQLQESGPGLVKPSETLSLTCTVSGGSISTYYWSWIRQSAGKGLEWIGRIYTSERPNYNPSLKSRVTMSVDTSKNQFSLKLNSVSAADTAVYYCARELERPYYYGMDVWGQGTTVTVSS
VL: DVQMTQSPSSLSASVGGRVTITCQASQDISNYLNWYQQKPGKAPKLLIYYASNLETGVPSRFSGSGSGTDFTFTISSLQPEDFATYYCQQYDNLPLTFGGGTKVEIK
notes: as for B1
B13: 75110_04P08A (antibody, V domains shown)
VH: QVQLQQWGAGLLKPSETLSLTCAVYGGSLSGYYWSWIRQSPGKGLEWIGEINQSGSTNYNPSLKSRVTISVDTSKDQFSLRLTSVTAADTAVYYCTRVLNWFDPWGRGTLVTVSS
VL: DIQMTQSPSSVSASVGDRVTLTCRASQDISNWLAWYQQKPGKAPKLLIYAASSLQSGVPSRFSGSGSGTDFTLTISSLQTEDFATYYCQQANSFPYTFGQGTKLEIK
notes: as for B1
B14: 75110_05A11A (antibody, V domains shown)
VH: EVQLVESGGGLVKPGGSLTLSCAASGFTFSNTWMSWVRQAPGKGLEWVGRIKSKIDGGTTDYAAPVKGRFTISRDDSKNTLYLQMNSLKTEDTAVYYCTTSGTYSSGWGLFDYWGQGTLVTVSS
VL: DIQMTQSPSSLSASVGDRVTITCQASQDISNYLNWYQQKPGKAPKLLIYDTSNLEAGVPSRFSGSGSGTHFTLTISSLQPEDIATYYCQQYDNLPFTFGGGTRVEIK
notes: as for B1
B15: 75110_05B13A (antibody, V domains shown)
VH: QVLLEQWGAGLLKPSETLSLTCAVYGGSFSGYYWTWIRQPPGKGLEWIGEINHRGSTNYNPSLKSRVTISIDTSKNQFSLKVKSVTAADTAMYYCTRPDSNWFDPWGQGTLVTVSS
VL: DIQMTQSPSSVSASVGDRVTITCRASQDISNWLAWYQQKPGKAPKLLIFAASSLQSGVPSRFSGSGSGTDFTLTISSLQPEDFATYYCQQANSFPLTFGGGTKVEIK
notes: as for B1
B16: 75110_05E05A (antibody, V domains shown)
VH: QVQLQESGPGLVKPSETLSLTCTVSGGSIGSYYWSWIRQPAGKGLEWIGRIYTSGSTNYNPSLKSRVTMSFDTSKNQFSLKLNSVTAADTAVYYCATDGGVGDSLDYWGQGTLVTVSS
VL: DIVMTQTPLSLPVTPGEPASISCRSSQSLLDSDDGNTYLDWYLQKPGQSPQLLIYTLSYRASGVPDRFSGSGSGTDFTLKISRVEAEDVGVYYCMQHIEFPFTFGPGTKVDIK
notes: as for B1
B17: 75110_05E13A (antibody, V domains shown)
VH: EVQLVESGGDLVKPGGSLRLSCAASGFSFSNAWMSWVRQAPGKGLEWVGRVESKTDGGTTDYAAPVKDRFTISRDDSKYTLYLQMNSLKTEDSAVYYCTIGGGFGLELYGFFDYWGQGTLVTVSS
VL: DIQMTQSPSTLSASVGDRVTITCRASQSISSWLAWYQQKPGKAPMLLIYKASSLESGVPSRFSGSGSGTEFTLTISSLQPDDFATYYCLQYNSYYTFGQGTKLEIK
notes: as for B1
B18: 75110_05G15A (antibody, V domains shown)
VH: QVQLQESGPGLVKPSQTLSLTCTVSGGSISSGGYFWSWIRQHPGKGLEWIGCIYYSGSTYYIPSLKSRVTISVDTSKNQFSLKLRSVTAADTAVYYCARDGYDYWYFDLWGRGTLVTVSS
VL: not shown
B19: 75110_05L07A (antibody, V domains shown)
VH: EVQLVESGGGLVQPGGSLRLSCAASGFTFSSYWMSWVRQAPGKGLEWVANINQDGSDKYYVDSVKGRFTISRDNVKNSLYLQINSLRAEDTAVYYCAREGGQWLTLDYWGQGTLVTVSS
VL: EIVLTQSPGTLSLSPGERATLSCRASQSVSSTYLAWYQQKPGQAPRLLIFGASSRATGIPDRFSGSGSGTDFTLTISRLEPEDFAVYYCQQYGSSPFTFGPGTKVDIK
notes: Tested as antibody purified from AlivaMab Mouse hybridoma supernatant (human variable domains, kappa; mouse Fc, captured on anti-mouse IgG Fc sensors); also called ADS75110 purified AMM Ab
B20: 75110_06C16A (antibody, V domains shown)
VH: QVQLQESGPGLVTPSETLSLSCTVSGGSISDYYWSWIRQPGGKGLEWIGRIYSSGSTNYNPSLKSRVTMSVDTSKNQFSLKLSSVTAADTAVYFCARDREDYYYYGMDVWGQGTTVTVSS
VL: DIQMTQSPSSLSASVGDRVTITCQASHDISNYLNWYQQKPGKAPKLLIYAASNLETGVPSRFSGSGSGTDFSFTISSLQPEDIATYYCQQYDHLPLTFGGGTKVEIK
notes: as for B19

Columns and labels:
[1] = molecular target: T1, Recombinant human CD4 (R&D Systems, Cat. 10327-CD) (human, UniProt P01730 26-390, limits assumed); test: BLI Octet, mAb on anti-mouse Fc sensor, CD4 100/50/25 nM, 1:1 global fit;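 also: antibodies loaded at 10 µg/mL, an unrelated mouse-derived antibody served as internal reference control, association and dissociation phases fitted after Savitzky-Golay smoothing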
T1 construct: Soluble analyte in the Octet assay

[2] = molecular target: T2, Rhesus macaque CD4-HIS (Acro Biosystems, Cat. CD4-C52H7) (rhesus macaque, UniProt P16003 26-390); test: BLI (Octet Red384); Ab on anti-mouse Fc (AMC) sensor; rhesus CD4-HIS 100/50/25 nM; global 1:1 fit;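 also: antibodies loaded at 10 µg/mL, an unrelated mouse-derived antibody served as internal reference, curves fit over association and dissociation phases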
T2 construct: Bought reagent; also called Rhesus CD4; rhesus CD4-HIS; not shown: His tag
T2 sequence (P16003 26-390 limits assumed): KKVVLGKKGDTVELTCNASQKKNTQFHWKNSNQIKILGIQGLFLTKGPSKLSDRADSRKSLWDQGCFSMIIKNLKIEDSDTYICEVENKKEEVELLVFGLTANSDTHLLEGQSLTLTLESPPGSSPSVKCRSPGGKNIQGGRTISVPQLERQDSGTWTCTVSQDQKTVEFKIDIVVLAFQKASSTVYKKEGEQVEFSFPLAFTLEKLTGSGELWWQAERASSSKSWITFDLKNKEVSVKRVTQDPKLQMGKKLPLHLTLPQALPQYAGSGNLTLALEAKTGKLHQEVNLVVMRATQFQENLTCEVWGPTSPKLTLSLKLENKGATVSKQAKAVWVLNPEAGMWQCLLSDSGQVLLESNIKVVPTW

| Binder | Kd [1] | Response [1] | koff [1] | kon [1] | Kd [2] | Response [2] | koff [2] | kon [2] |
| --- | --- | --- | --- | --- | --- | --- | --- | --- |
| B1 | 4.1 nM | 0.19 | 0.0016 s⁻¹ | 390000 M⁻¹ s⁻¹ | – | – | – | – |
| B2 | 2.2 nM | 0.11 | 0.00061 s⁻¹ | 280000 M⁻¹ s⁻¹ | – | – | – | – |
| B3 | 50 nM | 0.16 | 0.0031 s⁻¹ | 63000 M⁻¹ s⁻¹ | – | – | – | – |
| B4 | 3.5 nM | 0.22 | 0.0004 s⁻¹ | 120000 M⁻¹ s⁻¹ | – | – | – | – |
| B5 | 19 nM | 0.11 | 0.0014 s⁻¹ | 74000 M⁻¹ s⁻¹ | – | – | – | – |
| B6 | 8.8 nM | 0.14 | 0.0011 s⁻¹ | 130000 M⁻¹ s⁻¹ | – | – | – | – |
| B7 | < 0.001 nM | 0.18 | < 1e-07 s⁻¹ | 80000 M⁻¹ s⁻¹ | – | – | – | – |
| B8 | 17 nM | 0.25 | 0.0037 s⁻¹ | 220000 M⁻¹ s⁻¹ | – | – | – | – |
| B9 | 8.9 nM | 0.14 | 0.0008 s⁻¹ | 90000 M⁻¹ s⁻¹ | – | – | – | – |
| B10 | 16 nM | 0.17 | 0.0015 s⁻¹ | 90000 M⁻¹ s⁻¹ | – | – | – | – |
| B11 | 5.3 nM | 0.23 | 0.00047 s⁻¹ | 89000 M⁻¹ s⁻¹ | – | – | – | – |
| B12 | 0.25 nM | 0.15 | 1.8e-05 s⁻¹ | 73000 M⁻¹ s⁻¹ | – | – | – | – |
| B13 | 3.6 nM | 0.23 | 0.0005 s⁻¹ | 140000 M⁻¹ s⁻¹ | – | – | – | – |
| B14 | 18 nM | 0.27 | 0.0018 s⁻¹ | 97000 M⁻¹ s⁻¹ | – | – | – | – |
| B15 | 5.4 nM | 0.28 | 0.00058 s⁻¹ | 110000 M⁻¹ s⁻¹ | – | – | – | – |
| B16 | < 0.001 nM | 0.18 | < 1e-07 s⁻¹ | 34000 M⁻¹ s⁻¹ | – | – | – | – |
| B17 | 2.2 nM | 0.37 | 0.00022 s⁻¹ | 100000 M⁻¹ s⁻¹ | – | – | – | – |
| B18 | 13 nM | 0.09 | 0.0022 s⁻¹ | 170000 M⁻¹ s⁻¹ | – | – | – | – |
| B19 | – | – | – | – | 7.6 nM | 0.31 | 0.0011 s⁻¹ | 150000 M⁻¹ s⁻¹ |
| B20 | – | – | – | – | 27 nM | 0.15 | 0.002 s⁻¹ | 73000 M⁻¹ s⁻¹ |
